# According to the DeepSol protein solubility set:
# Experiment: soluble on expression in E. coli; label from the status in PepcDB or PDB records
row,Sequence,soluble on expression in E. coli
1,MGSDKIHHHHHHMYREYQPCGLLAPYVDKIWEFKGSPEYGMRINVLPDGCTDLIFALGGITQPVGSEGRIMPSCRSFFVGPMKRYSELVAYTETVHMVGIRFHPCGLFRFMDLPVQELGGQRISSADLGIKLFDDSFTERLYELPDLRSRIQCIETVLVRSMHKHDVVDKQIVFAVNHIHLYHGQREIRLLAEDTCLCQRHLERRFKLFTGFTPKEYSRIVKFRHAIDLLKNTTEANNLLSVAVNAGYYDVSHFLKEVKTLSGGTAESFLSPTLPQEGLLTYIEK,not soluble
2,MGSDKIHHHHHHMYVDEIHVEKCGPLSVGVYGGNQESDAYERGDAVLAWWDPELQFEFVMIFDTHHKTKNIDYIIEAISERKEKLKELFSYPIHLAFHHTHMYLLALFTDELFIEKCDQDDEELACLICLRKGEFLYWLSVGDCFAYLFHSEKTKNGKGRLNKRKNYEYIGRKNIFAANTPCFTSGVRGLEKGMNHIVMATDGILECDKRRFDDDQSLIEILHDGSCLQIEPVLTNVLQWKGRDCATIIGWSIDTENKRCAN,not soluble
3,MGSDKIHHHHHHMYYEKAVQKTINWIESHLHEQISNEDIVNVSSFSKFHFHRIFQKEVGMSVASYIRLRRLANAAAALLYTDHRIIDIALYYQFESQEAFTRTFKKMYHMPPGAYRTFMKRFTSKKEESYMEKKMKGWVLSGSHPFQFEMGIDRENVHQGKASGYLKSTMVQDIGEFATMMQQFKADRYLGKRLRLSSFIKTKGVQHFASLWMRVDSAADDVLQFDNMSNRPITGTTNWNHYAIVLDVPENSAVISFGVQLSGPGQVWMDHVVFEEVDESVPSTNLEMPGELLDEPVNLSFEEELQK,not soluble
4,MGSDKIHHHHHHNKNTLPDSNGTLVPVGSWYLGLSVGVGALKNPLRGQDNIPLYVLPEFRYYGERFSVENLDVSFTLYDAPAYSLELVGQQNMDGLLFPGDNRRLMASFTGMIPIRSRDVVETAVELPPLYPEHKSMSYMAGVAARYFGWFDAQVLALTDVSKVHHGYEINLSLGKQYNWKNINFEAQFGATYKSSKLTEYYYNGEYQELFYQVYNYRADSAINPYIQLSAAYDLGNNYFVSGNVRNIWLDDTIHHSPIFEDTHLLTYFIGIKKLF,not soluble
5,MGSDKIHHHHHHNSDVPENTHLVSKEVQAAFNAKYPQAKDVEWELKGDYAVADFYWDGGEHSAWFNPLSAAWYMTETDVRYENLPEPVLAAHKAGKYADWRVDDVDKLTREGMETLYVIEVEKGESELDLFYSSTGILVKTVVDTGHEEDYDDYLPQPDANGIIAIVKQKYPNATIVEIEREKGLQEVTILDENKEKEVYFNERNEWMGTSWDVQVANLPEAVKKSVMEKYSDYVIDDADYVVTPDNEWYILDLENKQIDKELKVKVDKDGVWL,not soluble
6,MGSDKIHHHHHHQAIAPAPADPAAALMPSPWSGSSGELGYASAHGNSTTDSLNGRIRLRYTDGDWIHSLDATALRSSSEYTNTNDDGSVTRERQTTAERYTGSAGSALQLGEHRQLTATGRYEHDDFATYDRLATFGIGYGTRLIDADRFYLDAQIGPGIRRAHNSDDDRNETGLIGRGLFDLKYTVTDNTDLINTLLVESGEYNTYAQNDFGVQVSMNSHFALKAAWQMRHNSDVSEGDKKTDTLTTVNLVYTFK,not soluble
7,MGSDKIHHHHHHQTQVIAHRGFWKTEGSAQNSIAALLKADSIGCYGSEFDVWLAADDQLVVNHDPTFKGKRMENSPSTALTAIKLDNGESLPTLAKYLKAAQPLHTRLILELKAHSTPLRETKAIEKIVALVKDMGLEERMEYITFSLHATKEFIRLAPEGTPVYYLDGNLSPKELKELGCAGPDYHYTVFRKHPEWIQECHDLGMKVNAWTVNKTDDMKWLIDRKVDFITTNEPVQLKNLLKK,not soluble
8,MGSDKIHHHHHHRFMRIMMTSVLNNTKTQKVKFWLLKNYLSPKFKETIPKLAEFYKFEFELVEYKWPKWLHKQTEKQRVMWGYKILFLDVLFPLNVDKIIFVDADQVVRADLQELMDFNLNGAPYGYVPFCESRTEMDGFRFWKSGYWKNHLMGRKYHISALYVVDLKAFREFSAGDRLRGRYDSLSADPNSLSNLDQDLPNNMLHEVPIKSLPQEWLWCETWCDDGSKEKAKTIDLCNNPLTKEPKLNSAKRIIKEWTEYDSEISKVLNSADINTPSPSVDRDEL,not soluble
9,MGSDKIHHHHHHSAHNKVSSQKLEAKNVNQVSNYSGDIDLLTVSQPTTPTTNNGQINQYFINRFDNAISLLNGKYVVNHNVLPQNTSGEEINILNESVKIANQQLIVGAQKIEKSDIDVKVVQKGNSIILAENPTTLKNSATSMATKHVGVTKVEFHWYGVRLFLSKNDVNKILKYGPTSVSIATIWMPTTWVVKLAASAAVACGWMSSVNGGIWIDWGLIPTKWGWQ,not soluble
10,MGSDKIHHHHHHSNKPEGVIGPFQLVIETKESYLPNDPLDVRVKVFNREKKKENLVLEDFVFSIKRENDTVYEFHFPQRVEKEMEAFESVLVFDLLREEELSNLPGGNYTITVSVKLNGQRVVISKVVSVIEKWQIEVEDLKDFYFPYENVHFFVYLENISSKSRKIRVESIGLIILKGNEAVFERDIPIEKDFVINPMMVEQIHEVSFSAPKESGDYIIKLKLKTESSLIEKSIPLFVTREYQKDLKGLSLVIEGKKFVASGERYDFSVKLLNEEKKRKYIVLKNIMIVLTHKEPVFSYAYSEEYRMTIEGYSSREIFKTTSYDIIKLEDPGTYKLIVVIESEEDRLMKEMEIVVSE,not soluble
11,MGSDKIHHHHHHTYTPGTMGEGVVYYLPKTEIELQVTATKVVYTPGEFCQYADRYLRLTGISSQPEEHWEINSIKVNSIGIPDPDNAYAVKLKDKSAASQVELTPEGIIKAINTTSPIEKAPVTKVADTVKKRIDPRSFMTEEILIAGSTAKMAELVAKEIYNIRESKNSLTRGQADYMPKDGAALKLMLDNLDEQEQAMMQMFAGTTDRIEKSFTIRIKPEADMKEKVAFRFSKKLGMLDADNLSGEPYYISIVNQETLPPMDPKGKEKKKTDGVIYNIPGKAQVTVFTPNKRYFDGELPVTQFGTTECLIDNLFNKKVNTRVIFNPNTGGIVKIDKD,not soluble
12,MGSDKIHHHHHHVAFSAKASLATAIGRSSYWFLHTFLKGGSSLPGQIANRIDPQVLRTLGQNYDVIVVTGTNGKTLTTSLIVKVLKKKYKEVLTNPTGSNMLQGITTAFLAQPKRGHGRGIAVLEVDEANVAPVAAQLKPKAFVLTNIFRDQMDRYGEFYTTYQKILDGVTRDPEAMVIANGDAPIFSSRKLPNPVTYYGFELTANGDHKAPPNTDGVLCPVCQHILHYHAQTYANLGNYFCPHCGFKRPALTHQITEVTQMTPQSSDFMIDDQPCHIDIGGMYNIYNALAAFAVGRAFGVTPTEISQAFAYDEKVFGRQEVIQLGKKKLTLILVKNPVGLNQVLSMIETAKQPFGFAMLLNANYADGIDTSWIWDGNFEELVASQKAASYLVGGERYKDIGLRLTVAGVPEKALVSKPALDDVISTLKRSQQDQLYVLATYTAMLQLRKKLSDGGYIKAGF,not soluble
13,MGSDKIHHHHHHVAIALDFGTSNTVVARWNTETQSPELLSLTNLSQRGSQTPPLIPSLLYVEEATMPRLLAGQAVRDQGRDRPQDSRFFRSFKRGIGAEVTGFLPDLDGVCPDFEQVGQWFLDTVIAALEPGDRDGADLVLTVPVDSFENYRLWLSRVAQQWPVDRVRLIDEPTAAALGYGVEQQSPILVFDFGGGTLDLALIELGQTTSKVRSPLGFILKWGDQSFGDNSGQRPQLARVLAKAGRNLGGNDLDDWLTDYFAKQLNTAPTRVLTRLAERIKIQLSTTPEASEVYFDDETLQSLQLQLDRSQFQQILHDRGFFEQLDELLESVLQQGRRQGINPDAIAAVLMVGGSAQIPAVQDWLAGYFPTEKIRCDRPFEAVACGALQLAQGLEVRDFLYHSYGIRYWNHRSQRHDWHPLIPPGQAYPMAEPVELVLGASVAQQPSMELVLGELSQDRGATEIFFDGDRLITRRIGPDRTAAKALNDSETARTIARLDPPGDPGVDRLRLQFWVDRDRFLRVTIEDLLTLETVVENQVVIQL,not soluble
14,MGSDKIHHHHHHVETSASVMEPFLQLLRGNNLRWRSFGLTRQDGNVSETEAIPNPQDTVDTHPWGRYVAMGDSFTEGIGDPEPGSPGGHRGWADRVAEELSRGHSDFAYANLAVRGRLLEQIVDQQLAPCLALKPDLVTLSAGGNDLIRPGGDPDALAEKLDSVVHILSLGGATVVLFNGPDTGSSVLGRVRSKIAIYNENLRTVAARHDAVIADMWSLRQLSDPQMWDQDRLHFSPLGHHTIAAMVLDSLNIRHTLEPLSPKPLPQRSWREARSGDLVWAREYFVPWVVRRLRHQSSGDGVTAKRPTPGPVFGPGMPLGSGEAPGIEAEQR,not soluble
15,MGSDKIHHHHHHVIGKLTLDQLRVLVAVADTGSFTAASQAVGRAQSAVSQMMAALENAQGVQLFDRSSYRPMLTEAGRVLVAQARTTLAGASRFEAMAEHMRSGVEAELALAIDPLVPSAPFMQGLRDLSARYPDLSVSFSTEGLGGSLRRLRDGSASLGICTLLPTVPDDVVAYPLLQTAMTPVVAGNHPLASQDGPLQRGDLEPHVQLVLSDPVEPSGPNYGLTSARLWRFADLNRRLDFLLGGFGWCRMPEHLVADALADGRLVALDIKNDNAPQDGLPIYAAHARDRALGPAGRWFLDAMRECMAAA,not soluble
16,MGSDKIHHHHHHVKKSESLPVLIVTGLSGAGKSTVLNVFEDLRFFTIDGLPVGVVADLLEHLARDAMGRYRGVVLGMDLRQFDFLDEFEGALMRLEKMGVSPRIIYLEADSDTLVRRFATTRRPHPLEGGDLGLEAAVEHERNLLAPVRERADLILDTSEFSIHDLRRIVQKKWSSLGGSLRSLRVNLITFGFKYGVPSDADMVFDLRFLPNPYFDAKLKALSGKDPEIQQFVLGCEQGKTFFKRFLDFLLFLLPQYEAEGRYRITLAIGCTGGRHRSVSTAEALRDALKKSDYAVSLEHRHIDLG,not soluble
17,MGSDKIHHHHHHVLIWWRGKFRRADEISLDFSLFEKSLQGAVYETLRTYSRAPFAAYKHYTRLKRSADFFNLPLSLSFDEFTKVLKAGADEFKQEVRIKVYLFPDSGEVLFVFSPLNIPDLETGVEVKISNVRRIPDLSTPPALKITGRTDIVLARREIVDCYDVILLGLNGQVCEGSFSNVFLVKEGKLITPSLDSGILDGITRENVIKLAKSLEIPVEERVVWVWELFEADEMFLTHTSAGVVPVRRLNEHSFFEEEPGPVTATLMENFEPFVLNLEENWVGI,soluble
18,MGSDKIHHHHHHVNQVSARRPVTVTGEDWFEIAKTLEISSESVVQDFLRDNPGFAADLVIPKRVTIETVFGCNARCGMCVIDQPTERPKGTMPLEQFKAIVDKLVPYRDRIEMMDFFALGEPLIDTHLFERIRYVKAKGFRRLAFATNAHLLTAAKRRDLLESGIDTVIFSIDGITKATHESIRERVNFDKVMENVQAVIRERDQGDFKTRFVVRFVRQAKNRHEWEEYKAFWSSRISPDRNDVVTSYDMHTWGGQVANKDDVIGGEQQRDEMVERLPCHHAFDKLTILADGSIPLCSEDILEPAYGFGKIGDQDPIQVFNSERLRAMRRLHLAGRKALLKGCGECTLLYSEPRRGSD,not soluble
19,MGSDKIHHHHHHVPDITIATERCIGCAECARDCPTGIIRMENGIPAVAPRREKRCIGCLHCVTVCPCGALSFRGVTPESCTPLKNRFPQPEALEILMKGRRSVRRFLPEAVDSALIRRTVDAAAHAPSGKNQRGLLFTVVDDPQTMNRLRHDTVEAVREALADGCSHPQTAFFQAALARWDTGTDIIFRNAPHLLWVTAPRTNTTAQADVHVALTYFELMAAACGLGTLWCGFATWAMSEIAPRIARGLGIPEAHTSGYVMLFGKPAVRYHRTAERGCDGFNRVVWPPAT,not soluble
